The record followed here is EP4350345A2.

Assay [1] has as its target purified interference factor(s) from serum of Donor A. Kind of assay: SPR, interference factor on CM5 chip. A general note: SPR reads the build-up and loss of mass on a sensor chip optically.
Assay [2] concerns the target monoclonal antibody 21-4-3. Nature of the assay: SPR, 21-4-3 captured via anti-mouse IgG, 500 nM.
The target of assay [3] is purified interference factor(s) from serum of Donor B. Kind of assay: SPR, interference factor on CM5 chip.
In assay [4] the target is purified interference factor(s) from serum of Donor C. Nature of the assay: SPR, interference factor on CM5 chip.

monoclonal antibody 21-4-3, sequence (VH, as listed by the source, chain 1 of 2): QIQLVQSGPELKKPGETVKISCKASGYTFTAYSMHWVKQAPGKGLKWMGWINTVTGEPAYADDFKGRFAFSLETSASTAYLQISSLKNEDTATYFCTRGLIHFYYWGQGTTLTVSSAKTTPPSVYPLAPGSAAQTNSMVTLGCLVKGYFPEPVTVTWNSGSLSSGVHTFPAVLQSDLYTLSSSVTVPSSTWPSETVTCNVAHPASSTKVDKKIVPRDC
monoclonal antibody 21-4-3, sequence (VL, as listed by the source, chain 2 of 2): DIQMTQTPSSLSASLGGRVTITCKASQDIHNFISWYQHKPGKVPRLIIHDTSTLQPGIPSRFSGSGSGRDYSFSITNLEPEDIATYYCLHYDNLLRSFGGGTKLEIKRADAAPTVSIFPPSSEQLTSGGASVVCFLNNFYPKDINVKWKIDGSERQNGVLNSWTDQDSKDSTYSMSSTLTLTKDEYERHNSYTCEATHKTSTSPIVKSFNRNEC

B1: Nanobody or Nanobody construct of SEQ ID NO: 48 (VHH)
VHH: EVQLVESGGGLVQPGGSLRLSCIASGLPFSTKSMGWFRQAPGKEREFVARISPGGTSRYYGDFVKGRFAISRDNAKNTTWLQMNSLKAEDTAVYYCASGERSTYIGSNYYRTNEYDYWGTGTQVTVSS
With B1, the binding as % of Reference Sequence (=100%) in assay [1] came to 0%; in assay [2] it was 3%.

B2: Nanobody or Nanobody construct of SEQ ID NO: 43 (VHH)
chain: DVQLVESGGGLVQPGGSLRLSCAASGFILDYYAIGWFRQAPGKEREGVLCIDASDDITYYADSVKGRFTISRDNSKNTVYLQMNSLRPEDTAVYYCATPIGLSSSCLLEYDYDYWGQGTLVTVSSGGGGSGGGSEVQLLESGGGLVQPGGSLRLSCAASGFTFRSFGMSWVRQAPGKGPEWVSSISGSGSDTLYADSVKGRFTISRDNSKNTLYLQMNSLRPEDTAVYYCTIGGSLSRSSQGTLVTVSSA
As for B2, the values for the binding as % of Reference Sequence (=100%) in assay [1], in assay [3] and in assay [2] were 3%, 20% and 3%, respectively.

B3: Nanobody or Nanobody construct of SEQ ID NO: 49 (VHH)
VHH: EVQLLESGGGLVQPGGSLRLSCAASGLPFSTKSMGWFRQAPGKGREFVSRISPGGTSRYYGDFVKGRFTISRDNSKNTLYLQMNSLRAEDTAVYYCASGERSTYIGSNYYRTNEYDYWGQGTLVTVSS
On to B3, for which the binding as % of Reference Sequence (=100%) in assay [1] came out at 0%; in assay [2] it was 4%.

B4: Nanobody or Nanobody construct of SEQ ID NO: 38 (VHH)
chain: EVQLVESGGGLVQPGGSLRLSCAASGFTFSSYAMSWVRQAPGKGLEWVSGIKSSGDSTRYAGSVKGRFTISRDNAKNTLYLQMNSLRPEDTAVYYCAKSRVSRTGLYTYDNRGQGTLVTVSSGGGGSGGGGSGGGGSGGGGSEVQLVESGGGLVQPGGSLRLSCAASGRTFNNYAMGWFRQAPGKEREFVAAITRSGVRSGVSAIYGDSVKDRFTISRDNAKNTLYLQMNSLRPEDTAVYYCAASAIGSGALRRFEYDYSGQGTLVTVSSA
With B4, the figures for the binding as % of Reference Sequence (=100%) in assay [1], in assay [4] and in assay [3] were 9%, 7% and 25%, respectively.

B5: Nanobody or Nanobody construct of SEQ ID NO: 47 (VHH)
VHH: EVQLVESGGGLVQPGGSLRLSCAASGSVFKINVMAWYRQAPGKGRELVAGIISGGSTSYADSVKGRFTISRDNAKNTLYLQMNSLRPEDTAVYYCAFITTESDYDLGRRYWGQGTLVTVSS
With B5, the binding as % of Reference Sequence (=100%) in assay [1] was 1%; in assay [2] it was 4%.

B6: Nanobody or Nanobody construct of SEQ ID NO: 45 (VHH)
VHH: EVQLVESGGGLVQAGGSLRLSCAASRSIGRLDRMGWYRHRTGEPRELVATITGGSSINYGDFVKGRFTISIDNAKNTVYLQMNNLKPEDTAVYYCNFNKYVTSRDTWGQGTQVTVSS
As for B6, the values for the binding as % of Reference Sequence (=100%) in assay [1] and in assay [2] were 0% and 22%, respectively.

B7: Nanobody or Nanobody construct of SEQ ID NO: 67 (VHH)
VHH: EVQLVESGGGLVQPGGSLRLSCAASRSIGRLDRMGWYRHRPGEPRELVATITGGSSINYGDSVKGRFTISIDNSKNTVYLQMNSLKPEDTAVYYCNFNKYVTSRDTWGQGTLVTVSS
With B7, the binding as % of Reference Sequence (=100%) in assay [1] came out at 102%; in assay [4], 96%; in assay [3] it was 117%; in assay [2], 101%.

B8: Nanobody or Nanobody construct of SEQ ID NO: 65 (VHH)
VHH: EVQLVESGGGLVQAGGSLRLSCAASRSIGRLDRMGWYRHRPGEPRELVATITGGSSINYGDSVKGRFTISIDNSKNTVYLQMNSLRPEDTAVYYCNFNKYVTSRDTWGQGTLVTVSS
B8: the binding as % of Reference Sequence (=100%) in assay [1] was found to be 73%; in assay [4], 64%; in assay [3] it was 121%; in assay [2], 23%.

B9: Nanobody or Nanobody construct of SEQ ID NO: 71 (VHH)
VHH: EVQLVESGGGLVQPGGSLRLSCAASRSIGRLDRMGWYRHRPGEPRELVATITGGSSINYGDSVKGRFTISIDNSKNTVYLQMNSLRPEDTAVYYCNFNKYVTSRDTWGQGTLVTVSG
In the case of B9, the binding as % of Reference Sequence (=100%) in assay [1] was 88%; in assay [4], 87%; in assay [3], 105%; in assay [2], 44%.

B10: Nanobody or Nanobody construct of SEQ ID NO: 70 (VHH)
VHH: EVQLVESGGGLVQPGGSLRLSCAASRSIGRLDRMGWYRHRPGEPRELVATITGGSSINYGDSVKGRFTISIDNSKNTVYLQMNSLRPEDTAVYYCNFNKYVTSRDTWGQGTLVQVSS
As for B10, the binding as % of Reference Sequence (=100%) in assay [1] stood at 90%; in assay [4] it was 98%; in assay [3] it was 105%; in assay [2], 106%.

B11: Nanobody or Nanobody construct of SEQ ID NO: 78 (VHH)
VHH: EVQLVESGGGLVRPGGSLRLSCAASRSIGRLDRMGWYRHRPGEPRELVATITGGSSINYGDSVKGRFTISIDNSKNTVYLQMNSLRPEDTAVYYCNFNKYVTSRDTWGQGTLVTVSS
As for B11, the binding as % of Reference Sequence (=100%) was 96% in assay [1], 100% in assay [4], 96% in assay [3] and 1% in assay [2].

B12: Nanobody or Nanobody construct of SEQ ID NO: 68 (VHH)
VHH: EVQLVESGGGLVQAGGSLRLSCAASRSIGRLDRMGWYRHRPGEPRELVATITGGSSINYGDSVKGRFTISIDNSKNTVYLQMNSLRPEDTAVYYCNFNKYVTSRDTWGQGTQVTVSS
B12: the binding as % of Reference Sequence (=100%) in assay [1] came out at 38%; in assay [4] it was 49%; in assay [3] it was 115%; in assay [2] it was 26%.

B13: Nanobody or Nanobody construct of SEQ ID NO: 69 (VHH)
VHH: EVQLVESGGGLVQPGGSLRLSCAASRSIGRLDRMGWYRHRPGEPRELVATITGGSSINYGDSVKGRFTISIDNSKNTVYLQMNSLRPEDTAVYYCNFNKYVTSRDTWGQGTQVTVSS
In the case of B13, the binding as % of Reference Sequence (=100%) in assay [1] worked out at 80%; in assay [4], 84%; in assay [3], 120%; in assay [2] it was 106%.

B14: Nanobody or Nanobody construct of SEQ ID NO: 66 (VHH)
VHH: EVQLVESGGGSVQPGGSLRLSCAASRSIGRLDRMGWYRHRPGEPRELVATITGGSSINYGDSVKGRFTISIDNSKNTVYLQMNSLRPEDTAVYYCNFNKYVTSRDTWGQGTLVTVSS
For B14, the binding as % of Reference Sequence (=100%) in assay [1] worked out at 81%; in assay [4] it was 84%; in assay [3] it was 29%; in assay [2] it was 48%.

B15: Nanobody or Nanobody construct of SEQ ID NO: 42 (VHH)
chain: EVQLVESGGGLVQPGGSLRLSCAASGRTFSYNPMGWFRQAPGKGRELVAAISRTGGSTYYPDSVEGRFTISRDNAKRMVYLQMNSLRAEDTAVYYCAAAGVRAEDGRVRTLPSEYTFWGQGTQVTVSSAAAEVQLVESGGGLVQPGGSLRLSCAASGRTFSYNPMGWFRQAPGKGRELVAAISRTGGSTYYPDSVEGRFTISRDNAKRMVYLQMNSLRAEDTAVYYCAAAGVRAEDGRVRTLPSEYTFWGQGTQVTVSSA
On to B15, for which the binding as % of Reference Sequence (=100%) in assay [1] is 1%; in assay [3] it was 4%.
